The target of assay [1] is T1, ER α (UniProt P03372 1-595, limits assumed).
T1 construct: also called estrogen receptor α; ERα-ERE
T1 sequence (looked up): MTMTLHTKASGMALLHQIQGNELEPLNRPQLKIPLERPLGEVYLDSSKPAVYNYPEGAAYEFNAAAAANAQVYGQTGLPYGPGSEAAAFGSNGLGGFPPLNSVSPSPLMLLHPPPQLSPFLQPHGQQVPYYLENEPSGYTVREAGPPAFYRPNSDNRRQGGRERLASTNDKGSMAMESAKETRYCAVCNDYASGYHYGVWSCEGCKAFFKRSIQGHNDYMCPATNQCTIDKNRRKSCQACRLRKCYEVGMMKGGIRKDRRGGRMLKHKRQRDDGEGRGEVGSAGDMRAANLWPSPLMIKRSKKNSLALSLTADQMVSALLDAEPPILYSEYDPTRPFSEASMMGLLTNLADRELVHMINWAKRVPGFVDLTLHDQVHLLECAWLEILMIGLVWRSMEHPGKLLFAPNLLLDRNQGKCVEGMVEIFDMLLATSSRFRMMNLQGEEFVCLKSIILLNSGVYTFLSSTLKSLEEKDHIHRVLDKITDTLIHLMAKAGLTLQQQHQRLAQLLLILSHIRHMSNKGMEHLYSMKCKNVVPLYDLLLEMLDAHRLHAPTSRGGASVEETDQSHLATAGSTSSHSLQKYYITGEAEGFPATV
Briefly: phage isolated on ERα on plastic; Tamoxifen.

Assay [2] addresses T2, estrogen receptor (ER) α as a carboxy-terminal fusion to the Gal4-activation domain (yeast, UniProt P03372 1-595, limits assumed).
T2 sequence (looked up): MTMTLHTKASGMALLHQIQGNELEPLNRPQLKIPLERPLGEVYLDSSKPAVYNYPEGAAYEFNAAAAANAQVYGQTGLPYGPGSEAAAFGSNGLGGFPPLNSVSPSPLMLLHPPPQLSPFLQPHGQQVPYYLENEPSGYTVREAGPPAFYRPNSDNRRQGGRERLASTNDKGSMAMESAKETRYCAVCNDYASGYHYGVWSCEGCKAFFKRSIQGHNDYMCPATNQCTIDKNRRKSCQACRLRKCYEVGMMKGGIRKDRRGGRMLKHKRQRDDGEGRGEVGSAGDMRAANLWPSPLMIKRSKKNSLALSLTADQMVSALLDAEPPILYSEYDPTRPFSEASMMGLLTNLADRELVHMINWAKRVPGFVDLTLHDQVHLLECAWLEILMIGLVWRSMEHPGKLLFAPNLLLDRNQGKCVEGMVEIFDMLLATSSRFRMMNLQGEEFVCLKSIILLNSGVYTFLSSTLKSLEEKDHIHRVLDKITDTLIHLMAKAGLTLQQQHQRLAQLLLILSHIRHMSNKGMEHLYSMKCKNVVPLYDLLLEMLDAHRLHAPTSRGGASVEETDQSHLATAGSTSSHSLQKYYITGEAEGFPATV
In words: cell-based or functional assay.

Another assay deals with T3, pVP16-AR (HSV), P10275.
T3 chain: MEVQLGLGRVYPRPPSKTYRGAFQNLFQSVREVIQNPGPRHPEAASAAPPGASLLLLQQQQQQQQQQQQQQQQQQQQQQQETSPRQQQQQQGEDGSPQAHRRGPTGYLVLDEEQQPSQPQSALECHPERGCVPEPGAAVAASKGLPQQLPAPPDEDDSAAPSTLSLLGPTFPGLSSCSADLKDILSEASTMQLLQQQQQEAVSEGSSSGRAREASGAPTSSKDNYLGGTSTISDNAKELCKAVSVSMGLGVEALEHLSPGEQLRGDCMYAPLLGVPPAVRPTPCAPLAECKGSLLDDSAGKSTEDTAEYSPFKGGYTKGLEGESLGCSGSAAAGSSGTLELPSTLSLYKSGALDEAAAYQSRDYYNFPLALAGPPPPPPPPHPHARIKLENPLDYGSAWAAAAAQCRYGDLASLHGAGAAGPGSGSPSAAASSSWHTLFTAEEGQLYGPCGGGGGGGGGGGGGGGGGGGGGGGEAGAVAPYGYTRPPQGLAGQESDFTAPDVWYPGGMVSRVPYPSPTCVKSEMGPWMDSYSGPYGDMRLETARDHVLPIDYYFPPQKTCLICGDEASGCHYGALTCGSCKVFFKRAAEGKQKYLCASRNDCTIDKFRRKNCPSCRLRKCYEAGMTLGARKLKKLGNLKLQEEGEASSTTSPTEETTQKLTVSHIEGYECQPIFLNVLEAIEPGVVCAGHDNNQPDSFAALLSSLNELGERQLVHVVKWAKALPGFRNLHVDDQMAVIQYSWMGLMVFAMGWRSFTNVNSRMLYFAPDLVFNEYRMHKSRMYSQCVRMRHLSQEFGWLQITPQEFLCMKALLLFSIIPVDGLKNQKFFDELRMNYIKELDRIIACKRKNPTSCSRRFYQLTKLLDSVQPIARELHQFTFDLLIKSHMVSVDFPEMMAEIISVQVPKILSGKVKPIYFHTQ
In words: cell-based or functional assay.

Assay [3] deals with T4, Gal4 transcriptional activation domain (AD) fused in frame with AR (yeast), P10275.
T4 chain: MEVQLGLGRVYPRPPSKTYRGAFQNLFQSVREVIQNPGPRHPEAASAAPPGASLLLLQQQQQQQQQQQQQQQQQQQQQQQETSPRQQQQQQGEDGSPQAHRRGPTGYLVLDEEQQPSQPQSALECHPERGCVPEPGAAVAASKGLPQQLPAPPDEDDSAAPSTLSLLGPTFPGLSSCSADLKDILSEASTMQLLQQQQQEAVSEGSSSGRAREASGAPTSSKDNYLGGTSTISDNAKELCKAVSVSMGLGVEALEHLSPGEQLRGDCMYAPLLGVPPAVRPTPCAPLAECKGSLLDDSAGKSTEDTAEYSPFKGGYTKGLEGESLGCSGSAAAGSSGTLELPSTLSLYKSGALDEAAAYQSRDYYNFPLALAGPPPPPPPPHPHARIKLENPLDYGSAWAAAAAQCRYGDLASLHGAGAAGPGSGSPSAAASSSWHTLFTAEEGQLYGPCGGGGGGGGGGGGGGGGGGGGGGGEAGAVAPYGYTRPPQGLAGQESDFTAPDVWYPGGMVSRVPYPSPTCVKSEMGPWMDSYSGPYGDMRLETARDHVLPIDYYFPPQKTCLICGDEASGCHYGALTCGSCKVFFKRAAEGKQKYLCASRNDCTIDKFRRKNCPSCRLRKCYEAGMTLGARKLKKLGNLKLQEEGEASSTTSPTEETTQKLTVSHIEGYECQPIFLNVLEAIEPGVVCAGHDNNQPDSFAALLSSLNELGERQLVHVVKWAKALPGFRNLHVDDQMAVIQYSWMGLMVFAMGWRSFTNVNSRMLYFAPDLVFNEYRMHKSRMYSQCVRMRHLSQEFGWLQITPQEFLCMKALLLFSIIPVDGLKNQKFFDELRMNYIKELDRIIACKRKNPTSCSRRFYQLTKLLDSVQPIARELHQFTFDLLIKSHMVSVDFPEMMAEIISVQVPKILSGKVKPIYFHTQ
In words: cell-based or functional assay.

Assay [4] addresses T1, ER α. In words: phage isolated on ERα-ERE; Estradiol.

No end group written: not given here.
Throughout, for Fold Induction (ligand-induced β-galactosidase, two-hybrid): test concentration or dose not given here.

With SSGRYDPFVLNAASR [11PT], the binding result with ER α [1] is recorded as “binds”.
The same measure, in the same setting: as for SSGYWGGWDYGAGSR [18PT], the entry is “binds”.
Still for that read-out and setting: as for SSWHSRWDLALGFSR [17PT], the entry is “binds”; as for SSYLTLGKSMMAISR [16PT], “binds”.
The same measure, in the same setting: as for SSRLLGDFGGSVVSR [6PT], the entry is “binds”; as for SSKYVFGFQVAGGSR [7PT], “binds”.

B1: B6F3 (peptide)
chain: MKLLSSIEQACDICRLKKLKCSKEKPKCAKCLKNNWECRYSPKTKRSPLTRAHLTEVESRLERLEQLFLLIFPREDLDMILKMDSLQDIKALLTGLFVQDNVNKDAVTDRLASVETDMPLTLRQHRISATSSSEESSNKGQRQLTVSEFFRATHLLRLLRTDSALDLQPS
For B1, the “Fold Induction (ligand-induced β-galactosidase, two-hybrid)” value in assay [2] is 3 fold.

B2: B4F6 (peptide)
chain: MKLLSSIEQACDICRLKKLKCSKEKPKCAKCLKNNWECRYSPKTKRSPLTRAHLTEVESRLERLEQLFLLIFPREDLDMILKMDSLQDIKALLTGLFVQDNVNKDAVTDRLASVETDMPLTLRQHRISATSSSEESSNKGQRQLTVSEFSGVPILHMLLMLPSSLDLQPS
For the molecule B2, the “Fold Induction (ligand-induced β-galactosidase, two-hybrid)” value in assay [2] turned out to be 5 fold.

B3: B5A2 (peptide)
chain: MKLLSSIEQACDICRLKKLKCSKEKPKCAKCLKNNWECRYSPKTKRSPLTRAHLTEVESRLERLEQLFLLIFPREDLDMILKMDSLQDIKALLTGLFVQDNVNKDAVTDRLASVETDMPLTLRQHRISATSSSEESSNKGQRQLTVSEFGCSAILRYLLRSPRDLDLQPS
For the molecule B3, the “Fold Induction (ligand-induced β-galactosidase, two-hybrid)” value in assay [2] was determined as 3 fold.

B4: B2G1 (peptide)
chain: MKLLSSIEQACDICRLKKLKCSKEKPKCAKCLKNNWECRYSPKTKRSPLTRAHLTEVESRLERLEQLFLLIFPREDLDMILKMDSLQDIKALLTGLFVQDNVNKDAVTDRLASVETDMPLTLRQHRISATSSSEESSNKGQRQLTVSEFFRLRRLDRLLQDSFLLDLQPS
B4: in assay [2], the “Fold Induction (ligand-induced β-galactosidase, two-hybrid)” value was determined as 12 fold.

B5: B5G11, P04386 1-147 (peptide)
chain: MKLLSSIEQACDICRLKKLKCSKEKPKCAKCLKNNWECRYSPKTKRSPLTRAHLTEVESRLERLEQLFLLIFPREDLDMILKMDSLQDIKALLTGLFVQDNVNKDAVTDRLASVETDMPLTLRQHRISATSSSEESSNKGQRQLTVSEFRSSVFEQMYLCTGGSLDLQPS
modifications: not checked
In the assay with pVP16-AR (HSV), P10275, B5 had a luciferase (mammalian two-hybrid, Huh-7), CYP. (Relative Light Units) of 4.46; a luciferase (mammalian two-hybrid, Huh-7), DHT (Relative Light Units) of 15.8; a luciferase (mammalian two-hybrid, Huh-7), MPA (Relative Light Units) of 8.03; a luciferase (mammalian two-hybrid, Huh-7), RU486 (Relative Light Units) of 0.105. The molecule also showed a luciferase (mammalian two-hybrid, Huh-7), no compound (Relative Light Units) with pVP16-AR (HSV), P10275 of 0.0503. Moreover, in assay [3], the Fold induction (yeast two-hybrid) stood at 6 fold; the β-galactosidase activity (yeast two-hybrid), CPA came out at 0.973; the β-galactosidase activity (yeast two-hybrid), DHT is 3.96; the β-galactosidase activity (yeast two-hybrid), No Lig stood at 0.638. The molecule also registered a β-galactosidase activity (yeast two-hybrid), RU in assay [3] of 0.9.
For the molecule SSSPWWSFNLRDMSR [12PT], the binding result with ER α [1] is “binds”.
SRDNCGAGLWAGCSR [19PT]: the binding result with ER α [1] was “binds”.
Still for that read-out and setting: as for SSSATSIKVQYQISR [15PT], the entry is “binds”.

B6: B8H3, P04386 1-147 (peptide)
chain: MKLLSSIEQACDICRLKKLKCSKEKPKCAKCLKNNWECRYSPKTKRSPLTRAHLTEVESRLERLEQLFLLIFPREDLDMILKMDSLQDIKALLTGLFVQDNVNKDAVTDRLASVETDMPLTLRQHRISATSSSEESSNKGQRQLTVSEFHSRLRVEVVSWGIGSTCSQANSGRISYDL
modifications: not checked
Turning to B6, in the assay with pVP16-AR (HSV), P10275, the luciferase (mammalian two-hybrid, Huh-7), CYP. (Relative Light Units) turned out to be 10.5; the luciferase (mammalian two-hybrid, Huh-7), DHT (Relative Light Units) turned out to be 11.6; the luciferase (mammalian two-hybrid, Huh-7), MPA (Relative Light Units) amounted to 11.3; the luciferase (mammalian two-hybrid, Huh-7), RU486 (Relative Light Units) is 3.88. For the same molecule, the luciferase (mammalian two-hybrid, Huh-7), no compound (Relative Light Units) with pVP16-AR (HSV), P10275 was 0.132. Also, in assay [3], the Fold induction (yeast two-hybrid) turned out to be 22 fold; the β-galactosidase activity (yeast two-hybrid), CPA turned out to be 0.393; the β-galactosidase activity (yeast two-hybrid), DHT turned out to be 3.81; the β-galactosidase activity (yeast two-hybrid), No Lig amounted to 0.174. This molecule also returned a β-galactosidase activity (yeast two-hybrid), RU in assay [3] of 0.
For the molecule SSWAGIKFGKPPHSR [8PT], the binding result with ER α [1] was “binds”.
Still for that read-out and setting: in the case of SSRMGHVWYDWTFSR [5PT] it was “binds”.
As to SSLRCYLSSSKVDQWACSR (not fully specified; cysteine pairing not given here) [17E], the binding result in the assay with ER α [4] is recorded as “binds”.

B7: B8E9, P04386 1-147 (peptide)
chain: MKLLSSIEQACDICRLKKLKCSKEKPKCAKCLKNNWECRYSPKTKRSPLTRAHLTEVESRLERLEQLFLLIFPREDLDMILKMDSLQDIKALLTGLFVQDNVNKDAVTDRLASVETDMPLTLRQHRISATSSSEESSNKGQRQLTVSEFQQCMCAEVKSWLGGSLDLQPS
modifications: not checked
In the assay with pVP16-AR (HSV), P10275, B7 returned a luciferase (mammalian two-hybrid, Huh-7), CYP. (Relative Light Units) of 16; a luciferase (mammalian two-hybrid, Huh-7), DHT (Relative Light Units) of 19.6; a luciferase (mammalian two-hybrid, Huh-7), MPA (Relative Light Units) of 18.5; a luciferase (mammalian two-hybrid, Huh-7), RU486 (Relative Light Units) of 10.2. Besides, the luciferase (mammalian two-hybrid, Huh-7), no compound (Relative Light Units) with pVP16-AR (HSV), P10275 was determined as 0.209. In assay [3], the Fold induction (yeast two-hybrid) was 4 fold; the β-galactosidase activity (yeast two-hybrid), CPA is 0.563; the β-galactosidase activity (yeast two-hybrid), DHT is 1.75; the β-galactosidase activity (yeast two-hybrid), No Lig came out at 0.499. In addition, the β-galactosidase activity (yeast two-hybrid), RU in assay [3] is 0.8.
For the molecule SSGWIEQKLRGSFSR [14PT], the binding result in the assay with ER α [1] was “binds”.
The same measure, in the same setting: as for SSSWSYGKPTFLSSR [9PT], the entry is “binds”.
Same read-out and setting: in the case of SRDTGDMWWGRGGSR [10PT] it was “binds”.
For the molecule SSYKPHSLLEWHLLGGTSR [18E], the binding result with ER α [4] is reported as “binds”.
As to SSWPYLPKREEWASR [13PT], the binding result with ER α [1] is recorded as “binds”.

The record behind these values is patent publication US20040043420A1, “Method of identifying conformation-sensitive binding peptides and uses thereof” (priority 2003, published 2004).
